T1: nSR100 (Mus musculus, UniProt Q8BKA3)
T1 construct: host or cells: mouse N2A cells
T1 sequence (Q8BKA3 1-608): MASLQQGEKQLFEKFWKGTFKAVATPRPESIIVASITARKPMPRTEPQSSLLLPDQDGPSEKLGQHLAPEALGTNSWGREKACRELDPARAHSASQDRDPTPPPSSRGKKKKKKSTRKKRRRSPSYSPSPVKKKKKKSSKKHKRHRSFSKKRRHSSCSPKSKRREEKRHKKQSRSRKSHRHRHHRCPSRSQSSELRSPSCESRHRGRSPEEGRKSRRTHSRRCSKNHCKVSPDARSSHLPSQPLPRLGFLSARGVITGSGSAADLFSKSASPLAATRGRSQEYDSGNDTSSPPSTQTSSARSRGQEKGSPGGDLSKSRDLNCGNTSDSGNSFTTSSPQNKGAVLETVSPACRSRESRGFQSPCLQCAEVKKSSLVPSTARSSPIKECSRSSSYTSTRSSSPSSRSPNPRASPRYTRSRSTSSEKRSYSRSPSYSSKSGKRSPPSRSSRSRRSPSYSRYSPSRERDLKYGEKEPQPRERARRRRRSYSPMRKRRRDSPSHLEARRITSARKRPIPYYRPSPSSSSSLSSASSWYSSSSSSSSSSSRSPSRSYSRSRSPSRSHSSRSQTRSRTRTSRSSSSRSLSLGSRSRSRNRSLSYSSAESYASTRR

B1: Fam76b (protein, UniProt Q80XP8 2-339, looked up)
Protein FAM76B: AASALYACTKCTQRYPFEELSQGQQLCKECRIAHPIVKCTYCRSEFQQESKTNTICKKCAQNVKQFGTPKPCQYCNIIAAFIGTKCQRCTNSEKKYGAPQTCEQCKQQCAFDRKEEGRRKVDGKLLCWLCTLSYKRVLQKTKEQRKSLGSSHSNSSSSSLTEKDQHHSKHHHHHHHHHHRHSSGHHKVSSLSPEQEQGLWKQSHKSSAAIQNETPKKKPKLESKPSNGDSSSINQSADSGGTDNFVLISQLKEEVMSLKRLLQQRDQTILEKDKKLTELKADFQYQESNLRTKMNSMEKAHKETVEQLQAKNRELLKQVAALSKGKKFDKSGSVLTSP
B2: Wbp11 (protein, UniProt Q923D5 1-641, looked up)
WW domain-binding protein 11: MGRRSTSSTKSGKFMNPTDQARKEARKRELKKNKKQRMMVRAAVLKMKDPKQIIRDMEKLDEMEFNPVQQPQLNEKVLKDKRKKLRETFERILRLYEKENPDIYKELRKLEVEYEQKRAQLSQYFDAVKNAQHVEVESIPLPDMPHAPSNILIQDIPLPGAQPPSILKKTSAYGPPARAVSILPLLGHGVPRLPPGRKPPGPPPGPPPPQVLQMYGRKVGFALDLPPRRRDEDMLYSPELAQRGHDDDMSSTSEDDGYPEDMDQDKHDDSTEDSDTDRSDAESDGDEFGHREDSERDNTEEKKSGLSVRFADMPGKSRKKKKNMKELTPLQAMMLRMAGQEIPEEGREVEEFSEEEDADDSDDSEAEKQSQKQHKDDGHSDSTAAASSQQQAPPQSAPASQIQAPPMPGPPPLGPPPAPPLRPPGPPTGLPPGPPPGAPPFLRPPGMPGIRGPLPRLLPPGPPPGRPPGPPPGPPPGLPPGPPPRGPPPRLPPPAPPGIPPPRPGMMRPPLVPPLGPAPPGLFPPAPLPNPGVLSAPPSLIQRPKADDASAATIEKKATATISAKPQITNPKAEVTRFVPTALRVRRENKGATAVPQRRSEDDSAVPVAKAAPRSGPSVAVSVQTKDDVYEAFMKEMEGLL
B3: Ddx6 (protein, UniProt P54823 1-483, looked up)
Probable ATP-dependent RNA …: MSTARTENPVIMGLSSQNGQLRGPVKASAGPGGGGTQPQPQLNQLKNTSTINNGTPQQAQSMAATIKPGDDWKKTLKLPPKDLRIKTSDVTSTKGNEFEDYCLKRELLMGIFEMGWEKPSPIQEESIPIALSGRDILARAKNGTGKSGAYLIPLLERLDLKKDNIQAMVIVPTRELALQVSQICIQVSKHMGGAKVMATTGGTNLRDDIMRLDDTVHVVIATPGRILDLIKKGVAKVDHVQMIVLDEADKLLSQDFVQIMEDIILTLPKNRQILLYSATFPLSVQKFMNSHLQKPYEINLMEELTLKGVTQYYAYVTERQKVHCLNTLFSRLQINQSIIFCNSSQRVELLAKKISQLGYSCFYIHAKMRQEHRNRVFHDFRNGLCRNLVCTDLFTRGIDIQAVNVVINFDFPKLAETYLHRIGRSGRFGHLGLAINLITYDDRFNLKSIEEQLGTEIKPIPSNIDKSLYVAEYHSEPAEDEKP
B4: Wdr11 (protein, UniProt Q8K1X1 1-1223, looked up)
WD repeat-containing protein …: MLPYTVNFKVSARTLTGALNAHNKAAVDWGWQGLIAYGCHSLVVVIDSNTAQTLQVLEKHKADIVKVRWARENYHHNIGSPYCLRLASADVTGKIIVWDVAAGVAQCEIQEHVKPIQDVQWLWNQDASRDLLLAIHPPNYIVLWNADTGTKLWKKSYADNILSFSFDPFDPSHLTLLTSEGIVFISDFSPSKPPSGPGKKVYISSPHSSPAHNKLAAATGAKKALNKVKILITQEKPSADFVALNDCLQLAYLPSKRNHMLLLYPREILILDLEVNQTVGVIAIERTGVPFLQVIPCSQRDGLFCLHENGCITLRVRRSYNSICTTSNDEPDLDPVQELTYDLRSQCDAIRVTKTVRPFSMVCCPVNENAAALIVSDGRVMIWELKSAVCSRNARNSSGVSPLYSPVSFCGIPGGVLQNKLPDLSLDNMIGQSAIAGEEHPKGSILQEVHLKFLLTGLLSGLPSPQFAIRMCPPLTTKNIKTYQPLLAVGTSNGSVLVYHLTSGLLHKELSVHSCEVKGIEWTSLTSFLSFAASTPNNMGLVRNELQLVDLPTGRSTAFRGDRGNDESPIEMIKVSHLKQYLAVVFKDKPLELWDIRTCTLLREMSKSFPAITALEWSPSHNLKSLRKKQLATREAMARQTVVSDAELGAVESSVISLLQEAESKAELSQNISAREHFVFTDNDGQVYHLTVEGNSVKDSARIPPDGSMGSITCIAWKGDTLVLGDMDGNLNFWDLKARVSRGIPTHRSWVRKIRFAPGKGNQKLIAMYNDGAEVWDTKEVQMVSSLRSGRNVTFRILDVDWCTSDKVILASDDGCIRVLEMSMKSTCFRMDEQELVEPVWCPYLLVPRAALALKAFLLHQPWNGRYSLDISHIDYPENEEIKTLLQEQLHALSNDIKKLLLDPDFSLLQRCLLVSRLYGDESELHFWTVAAHYLHSLSQAKSGDTVVTKEGAPKDRLSNPLDICYDVLCENTYFQKFQLERVNLQEVKRSTYDHTRKCTDQLLLLGQTDRAVQLLLETSADNQHYYCDSLKACLVTTVTSSGPSQSTIKLVATNMIANGKLAEGVQLLCLIDKAADACRYLQTYGEWNRAAWLAKVRLNSEECADVLKRWVDHLCSPQVNQKSKALLVLLSLGCFVSVAETLHSMRYFDRAALFVEACLKYGAFEVSEDTEKLIAAIYADYARSLKSLGFRQGAVRFASKAGAAGRDLLNELGSTKEELTES
B5: Rab5c (protein, UniProt P35278 1-216, looked up)
Ras-related protein Rab-5C: MAGRGGAARPNGPAAGNKICQFKLVLLGESAVGKSSLVLRFVKGQFHEYQESTIGAAFLTQTVCLDDTTVKFEIWDTAGQERYHSLAPMYYRGAQAAIVVYDITNTDTFARAKNWVKELQRQASPNIVIALAGNKADLASKRAVEFQEAQAYADDNSLLFMETSAKTAMNVNEIFMAIAKKLPKNEPQNAAGAPGRTRGVDLQESNPASRSQCCSN
B6: Grpel1 (protein, UniProt Q99LP6 28-217, looked up)
GrpE protein homolog 1, …: CTATKQKNNGQNLDEDLGHCEPKTDPPSADKTLLEEKAKLEEQLRETMEKYKRALADTENLRQRSQKLVEEAKLYGIQGFCKDLLEVADILEKATQSVPKEEISNNNPHLKSLYEGLVMTEVQIQKVFTKHGLLRLDPIGAKFDPYEHEALFHTPVEGKEPGTVALVSKVGYKLHGRTLRPALVGVVKDA
B7: Sfswap (protein, UniProt Q3USH5 1-945, looked up)
Splicing factor, suppressor …: MYGAGGGRAKPERKGGVKEEAGPGGTGTGGNRVELLVFGYACKLFRDDERALAQEQGQHLIPWMGDPKILIDRYDGRGHLHDLSAYDAEYATWNRDYQLSEEEARVEALCDEERYLALHTDLLEEEARQEEEYKRLSEALAEDGNYSAVGFTYGSDYYDPSEPTEEEEPSKQREKNEAENLEENEEPFIAPLGLSVPSDVELPPTAKMHAIIERTANFVCKQGAQFEIMLKAKQARNSQFDFLRFDHYLNPYYKFIQKAMKEGRYTVLAESKNEEKKKSGPTSDNEEEDDEEDGSYLHPSLFASKKSSRLEELMKPLKVVDPDHPLAALVRKAQADSSAPAPPTADGTPAQPSQVEYTADSTVAAMYYSYYMLPDGTYCLAPPPPGIDVATYYSTLPAGVTVSSSPGVTTTVPPPPGTTPPPPPTTAEPSSGVTSTTTTTSALAPVAIIPPPPDIQPVIDKLAEYVARNGLKFETSVRAKNDQRFEFLQPWHQYNAYYEFKKQFFLQKEGGGSTQAASTAEEAPTETAVEESGEAGEDGAPEGMAETGGRGSGKKEAGSSKSTVDGKLVKASFAPISFAIKAKENDLLPLEKNRVKLDDDSEEDEESRECQESTSSVANPSPAAAPPSVAVEEKKPQLTQEELEAKQAKQKLEDRLAAAAREKLAQASKESKEKQLQAERKRKAALFLQTLKNPLPEAEVGKLEESTFGVEDTGVMPCPLLVGGRTLPILEGKPPERPSNRCRDPPREEEREKKKKKHKKRSRTRSRSPKYHSSSKPRSRSHSKAKHSLPSAYRTVRRSRSRSRSPRRRAHSPERRREERSVPTAYRMSGSPGVSRKRTRSRSPHEKKKKRRSRSRTKAKARSQSTSPSKQAAQRPSAHSAHSASISPVESRGSSQERSRGVSQEKDGQISSAIVSSVQSKITQDLMAKVRAMLAASKNLQTSAS

biological target: T1, nSR100; test: AP-MS nSR100 interaction partners from mouse N2A cells (Table 5); format: binding; settings: bait Srrm4
From the text: By applying affinity purification coupled to mass-spectrometry (AP-MS), several interaction nSR100 partner proteins were detected that provide insight into mechanisms of post-translational regulation of nSR100 levels.

Molecule	AvgP (average of the SAINT scores)	MaxP (maximal SAINT score)
B1	0.98	1
B2	0.97	0.99
B3	0.97	1
B4	0.97	1
B5	0.97	0.99
B6	0.97	0.98
B7	0.97	0.99

same assay, conditions: bait Srrm4, 0.1 added to prevent division by 0

Molecule	FoldChange between the prey Avg spectra of the bait and control purifications
B1	35
B2	25
B3	30
B4	30
B5	25
B6	3.3
B7	25

same assay, conditions: bait Srrm4, 2 replicates

Molecule	AvgSpec (average number of spectra per replicate)
B1	3.5
B2	2.5
B3	3
B4	3
B5	2.5
B6	16.5
B7	2.5

same assay, conditions: bait Srrm4, biological replicate 1 (first number of the cell), AP-MS

Molecule	Spectra (number of spectra for the prey in the purification of the bait)
B1	2
B2	2
B3	2
B4	2
B5	3
B6	16
B7	2

same assay, conditions: bait Srrm4, biological replicate 2 (second number of the cell), AP-MS

Molecule	Spectra (number of spectra for the prey in the purification of the bait)
B1	5
B2	3
B3	4
B4	4
B5	2
B6	17
B7	3

same assay, conditions: bait Srrm4, sum of spectra over 2 replicates

Molecule	SpecSum
B1	7
B2	5
B3	6
B4	6
B5	5
B6	33
B7	5

Reference: US10772928B2, “Modulation and detection of a neuronal alternative splicing regulatory network for treatment and diagnosis of neurological disorders” (The Governing Council of the University of Toronto, priority 2014, dated 2020)
